Here are results for 103 substances from the supplement of paper PMC12042874.

± gives the uncertainty stated by the source.

This data set is described as follows: amyloid nucleation score (Sup35N fusion, yeast selection) (log enrichment); library NNK2; higher = more nucleation; inactive = no reads after selection. The method, boiled down:
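Nucleation score is defined as the DiMSum log enrichment of output over input reads, with centring on the mode score of non-aggregating sequences. A minimum of 100 input reads was required for each sequence. Reads came from Illumina sequencing of plasmid inserts from psi-negative yeast expressing Sup35N fused to peptides of 20 random codons, induced with 100 μM copper sulfate for 24 hours and grown 7 days at 30°C on medium lacking adenine and uracil.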
Regarding PCACCYGSLAYAAVHSNWLG, the amyloid nucleation score was found to be 8.495 ± 0.07.
Next, PCCFYLRICLCFSNTVEPIG: 4.07 ± 0.046; PCHFVCDCTRMASTTVIHV: 0.01 ± 0.45; PCISDIFKMDNIYGQQSLFP: -0.266 ± 1.1.
PCNLKNNCVSEWIGLFVQPQ registered an amyloid nucleation score of 2.23 ± 0.18.
Next, PCTMDYGVPRT: 0.585 ± 0.66; PCYFINFLRFSWNIQLYNVL: -0.668 ± 1.1.
In turn, PDFRSP registered an amyloid nucleation score of -0.451 ± 0.41.
PDFYMYPSLNDKSDLI: the amyloid nucleation score is -0.78 ± 0.76.
Next, PDLMLPDRLDIERCLQVWD: 0.049 ± 0.18.
Next, PDRVLLYKLTVRRFTGCDWG: 2.32 ± 0.17.
Next, PDYYYMTTLLYCRSSKSLKR: -1.46 ± 1.1.
Consider PEFLNKMQTTIYDKDCYMDR, for which the amyloid nucleation score entry is “inactive”.
Next, PEMLHTVILGISSNHYERGL: -1.12 ± 0.74; PEMWHYMRFSSIKIRLTSKF: -0.016 ± 0.65; PEWFGR: 0.588 ± 0.23.
PEYPVQIYMSMDL yielded an amyloid nucleation score of -1.33 ± 0.78.
The substance PFGGVEAFAGRMWWVEHSYW had an amyloid nucleation score of 0.009 ± 0.55.
Next, PFGMCSFTVVIYYGCFEDAH: 0.519 ± 0.3.
Consider PFMLSVHFALYMSDYIYMHL, for which the amyloid nucleation score is -0.02 ± 0.46.
Next, PFVTFATVFLLKPMVFAKQC: 1.23 ± 0.38; PGIMNVPS: 0.456 ± 0.32; PGSVWFSLTSMHE: 0.623 ± 0.66.
Next, PGVPP: -1.06 ± 1.1.
With PHDVFRWCVCAVPGSERSTG, the amyloid nucleation score came out at 0.815 ± 0.25.
Next, PHVFYCSILV: “inactive”.
Next, PIFNMSTPNFLSSPESRLLV: “inactive”.
As to PIKYIVFSVLSCRRCLGNSM, the amyloid nucleation score is 0.651 ± 0.48.
Next, PIRCRMKFY: -0.599 ± 0.38.
Next, PISFVCYMEKVLDYANWPCR: 8.458 ± 0.066.
On to PKQDTA, for which the amyloid nucleation score is -0.967 ± 0.36.
Next, PKRSCLVLGYNIVITDMQAR: 6.28 ± 0.067; PLDPHCVFPIDNTSMMRVV: 0.295 ± 0.32; PLLTMWDLDSGVSGFCQVRS: -0.477 ± 0.35.
Next, PLMSLLPPPNTR: -0.935 ± 0.44; PMFNEHRFSR: 2.37 ± 0.1.
Next, PMSSMMRGSDPKV: 0.119 ± 0.76; PNRYYQLGTYFLNVQVRQFG: 4.18 ± 0.045.
On to PPRGRTAINMTSKCQARVRP, for which the amyloid nucleation score turned out to be 0.966 ± 0.3.
Next, PQAVLKGTQGHNLTKNLTWA: -0.774 ± 0.49.
Turning to PRGEFTWWSLGIIPNRWQCR, the amyloid nucleation score is -0.771 ± 1.1.
Next, PRKLLSLKPNSTAAGKCATL: 2.89 ± 0.079.
Next, PRKPRNVDSL: 0.134 ± 0.18.
PRLYTPILYCLLTRCKVYTT showed an amyloid nucleation score of 3.41 ± 0.051.
Next, PRWRDRVVNMKSDLDGV: 5.51 ± 0.073; PSAVRTILVTAI: -0.447 ± 0.35.
Next, PSCDVFVKIRLHFAFVKNFI: “inactive”; PSDTYNNDG: 0.751 ± 0.58.
PSGFVVLGSLCGMIFVRVTK: the amyloid nucleation score was -0.974 ± 0.49.
Next, PSLRV: 1.08 ± 0.42; PSMIYFYRGSSLFASWGFLI: “inactive”.
Next, PSNKLKWLCLDV: 0.576 ± 0.43; PSRVSVSYM: 2.69 ± 0.076.
Take PSVCKWCYMKCRRRTCFSQL: the amyloid nucleation score result was “inactive”.
Next, PSVDCSEIKPIWNLVKYFLI: -0.571 ± 0.26; PSWSAKTCACWNKAYPIVEI: 0.633 ± 0.47; PSYDVCSMDCLDEKDGFMWL: 0.25 ± 0.62.
Next, PTLVLKKAVEPTQENGSLTV: 5.767 ± 0.051; PTMEPVVHITLDCVYKDF: “inactive”.
For the substance PTRIFSCSRSGGWYYL, the amyloid nucleation score was -0.831 ± 0.32.
Next, PTRLTVKVMCLKPEPLVWKL: 6.476 ± 0.042; PTYFWKQQCWVHYICWIMSY: -1.15 ± 0.35; PVNPQEFLSALSSRYEVKSW: -0.095 ± 1.1.
Take PWSSHCSCVFNNKDLILGNT: the amyloid nucleation score was -0.21 ± 0.79.
Next, PWVNRCKELCMFVLGVDRGG: -0.588 ± 1.1; PYALWGIRESHLFQKCWSGM: 3.33 ± 0.099; PYELCDRTVRMSFWVTVWGH: 0.281 ± 0.49.
Next, PYQLRVSLTLMLISGSLDIY: 0.47 ± 0.5; QCGMIMRSSLKSGATCFLDS: 0.124 ± 0.61; QCLHSWDWLKSWFVFVGRGE: 3.88 ± 0.066.
Next, QCLYWV: “inactive”.
The substance QCMTKKLEISQY registered an amyloid nucleation score of -0.492 ± 1.
As for QDVFCLSGLNSHCK, the amyloid nucleation score is -1.45 ± 0.78.
Next, QENFCEYFFDRSITSWWR: “inactive”; QFARGPSGSIMEQVLIDGDV: 0.277 ± 0.64; QFASISICYKSSIPNDCNDV: 1.12 ± 0.2.
In the case of QFNKIDWMHKMFTSSRVNMS, the amyloid nucleation score is -0.166 ± 0.31.
For the substance QFSCRCN, the amyloid nucleation score came to 0.011 ± 0.79.
As to QFSLLDHITCQPLPTLFLS, the amyloid nucleation score turned out to be 7.91 ± 0.065.
Next, QFSLMRAIFMWASPRSWLLD: “inactive”; QFWVPTLEAWSWTSAFPYMP: -0.536 ± 1.1; QGYAYMCTGSFFFSLLQVLS: 3.79 ± 0.1.
Next, QIDLL: -1.36 ± 1.1.
Next, QIYCVSPLSRHWYFARYGVT: 0.78 ± 0.32; QKGHSRLQPWSLSPYVYRPL: 0.556 ± 0.42; QLCAMKMDSRIFCVSCFTML: 7.049 ± 0.056.
Substance QLCLLCFLYMC registered an amyloid nucleation score of 3.16 ± 0.16.
Next, QLESRRDDHRVHESADGSA: 0.466 ± 0.33; QLFFRYYCEAGDVCIFGHIA: 3.32 ± 0.099.
Next, QLFMNPDWNKRHYNELYSSG: “inactive”; QLFVMADNVRESSKTLRTIW: -0.513 ± 0.35.
As for QLGIGFFGRKWDGHL, the amyloid nucleation score was determined as 2.79 ± 0.16.
Next, QLGLLFFGTVLM: 1.87 ± 0.14.
Next, QLNFYNQTQCVLGEVTTLN: -0.476 ± 0.36.
As to QLTQYQSKTRTMCRKQERTV, the amyloid nucleation score is 1.88 ± 0.43.
Next, QLYKRSE: 0.256 ± 0.27; QMGCWLGLLVDSLYLSWLVT: -0.2 ± 0.43; QMIFGYQHRAALDIMNGVPD: “inactive”.
Next, QMMLLTV: -0.214 ± 1.1.
Next, QMYATSFNIDCVLFLSLFEM: 6.27 ± 0.07; QNESHIH: 6.31 ± 0.079.
In turn, QNLCDCCKYQICSVLFMGHA returned an amyloid nucleation score of 4.33 ± 0.082.
As to QNNKILFWQ, the amyloid nucleation score was 0.039 ± 0.31.
